Data on nine molecules can be found in patent US20200231654A1 (Daiichi Sankyo, published 2020).

Experiment [1] concerns the target T1, biotin-labeled active hMMP-9(cat)_FLAG_Avi (human, UniProt P14780 107-449, biotin on the Avi tag (biotin ligase BirA)).
T1 construct: His tag and propeptide removed; also called active human MMP-9 enzyme active domain
Briefly: ELISA, biotinylated target on streptavidin plate, anti-S-tag HRP detection. On the procedure:
(§1) The biotin-labeled pro-hMMP-9(cat)_His6_FLAG_Avi obtained in (2-1-6) or biotin-labeled active hMMP-9(cat)_FLAG_Avi obtained in (2-1-7) was immobilized on a streptavidin coated 96-well plate (Thermo Fisher Scientific). After blocking with 3% BSA, 1 to 1,000 nM of the binding peptides were added, and reacted at room temperature for 1.5 hours. After washing, goat anti-S-Tag HRP conjugated (Bethyl Laboratories, Inc.) was added, and reacted at room temperature for 1 hour. After washing, substrates of ELISA POD substrate A.B.T.S kit (Nacalai Tesque Inc.) were added, and reacted at room temperature.

For experiment [2], the target named is T2, biotin-labeled pro-hMMP-9(cat)_His6_FLAG_Avi (human, UniProt P14780 20-449, biotin on the Avi tag (biotin ligase BirA)).
T2 construct: Secretion signal Met1-Ala19 left out; also called pro human MMP-9 enzyme active domain; not shown: His tag (His6 by the construct's name)
The experiment is described as above. On the procedure: as §1

Experiment [3] deals with T3, hMMP-9(cat)_E402Q_His6 (human, UniProt P14780 107-449).
T3 construct: also called human MMP-9 enzyme active domain E402Q mutant; human MMP-9 E402Q mutant; not shown: His tag (His6 by the construct's name)
Briefly: size exclusion chromatography of the mixture. The method, then: After the reaction, 10 μl of the reaction solution was analyzed by size exclusion chromatography. The chromatographic conditions were as follows.

The target in experiment [4] is active hMMP-9(cat)_Y179A (human, UniProt P14780 107-449). Briefly: cell-based or functional assay.
Experiment [5] has as its target active hMMP-9(cat)_R424T (human, UniProt P14780 107-449). Briefly: cell-based or functional assay.
The target of experiment [6] is active hMMP-9(cat)_D185A (human, UniProt P14780 107-449). Briefly: cell-based or functional assay.
The target of experiment [7] is active hMMP-9(cat)_M422I (human, UniProt P14780 107-449). Briefly: cell-based or functional assay.
Experiment [8] deals with active hMMP-9(cat)_Y423A (human, UniProt P14780 107-449). In words: cell-based or functional assay.
For experiment [9], the target named is active hMMP-9(cat)_Y393A (human, UniProt P14780 107-449). In words: cell-based or functional assay.
In experiment [10] the target is active hMMP-9(cat) (human, UniProt P14780 107-449). Briefly: cell-based or functional assay.
Experiment [11] has as its target active hMMP-9(cat)_F192A (human, UniProt P14780 107-449). Briefly: cell-based or functional assay.
Experiment [12] addresses active hMMP-9(cat)_L397A (human, UniProt P14780 107-449). In words: cell-based or functional assay.
For experiment [13], the target named is active hMMP-9(cat)_P193A (human, UniProt P14780 107-449). Briefly: cell-based or functional assay.
Experiment [14] has as its target active hMMP-9(cat)_V398A (human, UniProt P14780 107-449). In words: cell-based or functional assay.
Experiment [15] concerns the target active hMMP-9(cat)_F110A (human, UniProt P14780 107-449). In words: cell-based or functional assay.
The target in experiment [16] is active hMMP-9(cat)_L187A (human, UniProt P14780 107-449). Briefly: cell-based or functional assay.
In experiment [17] the target is active hMMP-9(cat)_Y420A (human, UniProt P14780 107-449). Briefly: cell-based or functional assay.
For experiment [18], the target named is active hMMP-9(cat)_Q199G (human, UniProt P14780 107-449). Briefly: cell-based or functional assay.

A value given as a limit tells only on which side of the number the result lay.

T2 sequence (P14780 other isoform, or with tags, fused parts or gaps): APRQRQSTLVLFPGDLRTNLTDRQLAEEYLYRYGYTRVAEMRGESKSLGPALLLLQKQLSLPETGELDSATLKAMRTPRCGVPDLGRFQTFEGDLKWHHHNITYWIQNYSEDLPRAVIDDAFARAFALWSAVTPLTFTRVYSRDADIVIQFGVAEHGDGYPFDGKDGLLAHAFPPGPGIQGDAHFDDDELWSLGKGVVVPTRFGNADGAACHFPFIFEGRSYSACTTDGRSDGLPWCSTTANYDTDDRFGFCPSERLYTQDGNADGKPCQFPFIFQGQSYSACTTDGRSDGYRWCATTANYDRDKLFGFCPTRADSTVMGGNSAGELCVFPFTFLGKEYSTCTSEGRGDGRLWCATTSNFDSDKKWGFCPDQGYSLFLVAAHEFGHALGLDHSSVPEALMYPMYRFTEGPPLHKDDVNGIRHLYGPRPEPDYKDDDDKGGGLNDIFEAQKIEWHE
T1 sequence (P14780 other isoform, or with tags, fused parts or gaps): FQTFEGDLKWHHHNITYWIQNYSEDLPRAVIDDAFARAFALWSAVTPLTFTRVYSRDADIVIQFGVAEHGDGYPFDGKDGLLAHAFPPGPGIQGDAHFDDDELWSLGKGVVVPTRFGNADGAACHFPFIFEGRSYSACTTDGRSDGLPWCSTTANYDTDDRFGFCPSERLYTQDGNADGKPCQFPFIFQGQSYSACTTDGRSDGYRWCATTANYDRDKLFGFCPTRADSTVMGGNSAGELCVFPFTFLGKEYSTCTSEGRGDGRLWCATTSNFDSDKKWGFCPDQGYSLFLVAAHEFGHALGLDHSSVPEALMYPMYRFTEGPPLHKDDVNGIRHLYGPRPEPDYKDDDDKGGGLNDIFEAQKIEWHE
active hMMP-9(cat)_L397A, sequence (P14780 107-449 L397A): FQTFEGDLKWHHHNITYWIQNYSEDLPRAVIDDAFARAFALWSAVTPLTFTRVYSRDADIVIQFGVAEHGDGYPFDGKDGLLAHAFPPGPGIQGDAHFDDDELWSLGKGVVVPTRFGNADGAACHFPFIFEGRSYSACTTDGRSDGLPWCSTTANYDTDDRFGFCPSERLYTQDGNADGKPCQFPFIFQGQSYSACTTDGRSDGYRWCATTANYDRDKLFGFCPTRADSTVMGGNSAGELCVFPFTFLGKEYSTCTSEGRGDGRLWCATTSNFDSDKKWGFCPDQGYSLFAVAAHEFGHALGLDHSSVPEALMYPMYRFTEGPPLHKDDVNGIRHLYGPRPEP
active hMMP-9(cat)_Y393A, sequence (P14780 107-449 Y393A): as the sequence (P14780 107-449 L397A) above, with Y287A, A291L counted along it
active hMMP-9(cat), sequence (P14780 107-449): as the sequence (P14780 107-449 L397A) above, with A291L counted along it
T3 sequence (P14780 107-449 E402Q): as the sequence (P14780 107-449 L397A) above, with A291L, E296Q counted along it
active hMMP-9(cat)_M422I, sequence (P14780 107-449 M422I): as the sequence (P14780 107-449 L397A) above, with A291L, M316I counted along it
active hMMP-9(cat)_Y423A, sequence (P14780 107-449 Y423A): as the sequence (P14780 107-449 L397A) above, with A291L, Y317A counted along it
active hMMP-9(cat)_Y179A, sequence (P14780 107-449 Y179A): as the sequence (P14780 107-449 L397A) above, with Y73A, A291L counted along it
active hMMP-9(cat)_V398A, sequence (P14780 107-449 V398A): as the sequence (P14780 107-449 L397A) above, with A291L, V292A counted along it
active hMMP-9(cat)_F192A, sequence (P14780 107-449 F192A): as the sequence (P14780 107-449 L397A) above, with F86A, A291L counted along it
active hMMP-9(cat)_Q199G, sequence (P14780 107-449 Q199G): as the sequence (P14780 107-449 L397A) above, with Q93G, A291L counted along it
active hMMP-9(cat)_L187A, sequence (P14780 107-449 L187A): as the sequence (P14780 107-449 L397A) above, with L81A, A291L counted along it
active hMMP-9(cat)_P193A, sequence (P14780 107-449 P193A): as the sequence (P14780 107-449 L397A) above, with P87A, A291L counted along it
active hMMP-9(cat)_F110A, sequence (P14780 107-449 F110A): as the sequence (P14780 107-449 L397A) above, with F4A, A291L counted along it
active hMMP-9(cat)_D185A, sequence (P14780 107-449 D185A): as the sequence (P14780 107-449 L397A) above, with D79A, A291L counted along it
active hMMP-9(cat)_Y420A, sequence (P14780 107-449 Y420A): as the sequence (P14780 107-449 L397A) above, with A291L, Y314A counted along it
active hMMP-9(cat)_R424T, sequence (P14780 107-449 R424T): as the sequence (P14780 107-449 L397A) above, with A291L, R318T counted along it

B1: wild type SPINK2 (other)
chain: GSGMKETAAAKFERQHMDSPDLGTDDDDKAMADIGSANSDPQFGLFSKYRTPNCSQYRLPGCPRHFNPVCGSDMSTYANECTLCMKIREGGHNIKIIRNGPCGASAAA
notes: also called WT; human SPINK2
Take B1: the binding result in [1] and in experiment [2] was “no binding (tested: 1 to 1,000 nM)” each time.

B2: active MMP-9-binding peptide M91004 (designed binder)
chain: GSGMKETAAAKFERQHMDSPDLGTDDDDKAMADIGSANSDPQFGLFSKYRTPNCRQRKGPSCQMAFQPVCGSDMSTYANECTLCMKIREGGHNIKIIRNGPCGASAAA
notes: SPINK2 mutant as prepared in (1-2): Stag+linker 1 at the N-terminal, C-terminal 6-mer at the C-terminal
Turning to B2, the binding result in experiment [1] is “binds”; in [2], “no binding (tested: 1 µM)”.

B3: active MMP-9-binding peptide M91010 (designed binder)
chain: GSGMKETAAAKFERQHMDSPDLGTDDDDKAMADIGSANSDPQFGLFSKYRTPNCRKVGEPACQMSFNPVCGSDMSTYANECTLCMKIREGGHNIKIIRNGPCGASAAA
notes: as for B2
Regarding B3, the binding result in experiment [1] is reported as “binds”; in experiment [2], “no binding (tested: 1 µM)”.

B4: active MMP-9-binding peptide M91011 (designed binder)
chain: GSGMKETAAAKFERQHMDSPDLGTDDDDKAMADIGSANSDPQFGLFSKYRTPNCMMYKYAQCSHKSQPVCGSDMSTYANECTLCMKIREGGHNIKIIRNGPCGASAAA
notes: as for B2
Take B4: the binding result in experiment [2] is on record as “no binding (tested: 1 µM)”; in [3], “no binding (tested: 75 µM peptide with 25 µM target)”. Besides, the “IC50 of enzyme inhibition relative to the wild type” value in experiment [4] is 4.9 times; in experiment [5] it was 2.7 times; in experiment [6], 19 times; in experiment [7] it was 2.6 times; in experiment [8], over 20 times; in experiment [9] it was over 57.6 times. The “IC50 of enzyme inhibition relative to the wild type” value in [11] came out at 5 times; in [12], 3.5 times; in experiment [13] it was 6.5 times; in [14], 4.8 times. Further, the “IC50 of inhibition of substrate peptide degradation” value in experiment [10] stood at 17 nM.

B5: active MMP-9-binding peptide M91001 (designed binder)
chain: GSGMKETAAAKFERQHMDSPDLGTDDDDKAMADIGSANSDPQFGLFSKYRTPNCQRGIGPSCQMSYKPVCGSDMSTYANECTLCMKIREGGHNIKIIRNGPCGASAAA
notes: as for B2
Consider B5, for which the binding result in experiment [1] is on record as “binds”; in experiment [2], “no binding (tested: 1 µM)”.

B6: active MMP-9-binding peptide M91005 (designed binder)
chain: GSGMKETAAAKFERQHMDSPDLGTDDDDKAMADIGSANSDPQFGLFSKYRTPNCRKRGGPSCQMSYNPVCGSDMSTYANECTLCMKIREGGHNIKIIRNGPCGASAAA
notes: as for B2
Take B6: the binding result in experiment [2] was “no binding (tested: 1 µM)”; in [3], “no binding (tested: 75 µM peptide with 25 µM target)”. Besides, the “IC50 of enzyme inhibition relative to the wild type” value came out at 3.2 times in experiment [4]; 2.6 times in experiment [7]; 13.2 times in experiment [8]; 2.7 times in experiment [9]; 4 times in [15]; 6.7 times in [16]. For the same molecule, the “IC50 of enzyme inhibition relative to the wild type” value was over 57.8 times in experiment [11]; 3.1 times in experiment [17]; 2.2 times in [12]; 2.3 times in [18]; 2.2 times in experiment [14]. Moreover, the “IC50 of inhibition of substrate peptide degradation” value in experiment [10] was 17 nM.

B7: active MMP-9-binding peptide M91012 (designed binder)
chain: GSGMKETAAAKFERQHMDSPDLGTDDDDKAMADIGSANSDPQFGLFSKYRTPNCRVRGGPSCQMSFNPVCGSDMSTYANECTLCMKIREGGHNIKIIRNGPCGASAAA
notes: as for B2
As to B7, the binding result in experiment [1] is recorded as “binds”; in experiment [2], “no binding (tested: 1 µM)”.

B8: active MMP-9-binding peptide M91002 (designed binder)
chain: GSGMKETAAAKFERQHMDSPDLGTDDDDKAMADIGSANSDPQFGLFSKYRTPNCRTGRGPACQMGFQPVCGSDMSTYANECTLCMKIREGGHNIKIIRNGPCGASAAA
notes: as for B2
For B8, the binding result in [1] is on record as “binds”; in [2], “no binding (tested: 1 µM)”.

B9: active MMP-9-binding peptide M91014 (designed binder)
chain: GSGMKETAAAKFERQHMDSPDLGTDDDDKAMADIGSANSDPQFGLFSKYRTPNCVMYKYAQCSHKYKPVCGSDMSTYANECTLCMKIREGGHNIKIIRNGPCGASAAA
notes: as for B2
With B9, the binding result was “binds” in experiment [1] and “no binding (tested: 1 µM)” in experiment [2].
